Measured values from patent US20130344053A1, “Methods of Modifying Insulin Signaling Using Biliverdin Reductase (BVR) and BVR Derived Peptides” (University of Rochester, priority 2010, published 2013).

What was measured:
[1] = system: insulin receptor substrate-1 (IRS-1) peptide Y^608
[2] = system: rat smooth muscle cells (PAC1); experiment: Glucose uptake in PAC1 cells (IGF-dependent); format: cell-based; settings: myristoylated peptide 2 h, then IGF-1 50 ng/ml 10 min
Description: Glucose uptake was tested as described infra. Cells were starved in low glucose serum-depleted DMEM for 20 hours prior to transfer to PBS containing CaCl2, MgCl2. After 2 hrs myristoylated peptides were added to the medium for 2 hours. Thereafter, IGF-1 (50 ng/ml) or insulin (100 nM) was added (10 min) and glucose uptake was tested for 3 min in the presence of methyl-D-glucose,3-O-[methyl-3H]. Subsequently cells were washed 3 times in cold PBS and solubilized in NaOH (0.05 mM). Aliquots were measured for radioactivity. Non-specific binding or diffusion were tested by addition of 300 mM glucose to the cells. This value was deducted from the total counts (on the average <20%) and results were normalized for protein concentration.
(§1) FIGS. 15A-B show the effect of hBVR-based peptides on IGF-dependent glucose uptake in rat smooth muscle cells (PAC1) (FIG. 15A) and insulin-dependent glucose uptake in human epithelial kidney (HEK) cells (FIG. 15B). Cells were treated as described for FIG. 14 and glucose uptake was measured as described infra.
(§2) The therapeutic utility of various BVR peptides with regard to their ability to modify insulin and insulin growth factor (IGF) mediated cellular glucose uptake was evaluated. Human embryonic kidney cells (HEK293) or rat aortic smooth muscle cells (PAC) were starved in low glucose serum-depleted DMEM for twenty hours prior to transfer to PBS containing CaCl2, MgCl2. After two hours, myristoylated peptides were added to the medium for two additional hours. Thereafter, IGF-1 (50 ng/ml) or insulin (100 nM) was added (10 min) and glucose uptake was tested for three minutes in the presence of methyl-D-glucose,3-O-[methyl-3H]. Subsequently, cells were washed three times in cold PBS and solubilized in NaOH (0.05 mM). Aliquots were measured for radioactivity. Non-specific binding or diffusion was tested by addition of 300 mM glucose to the cells. This value was deducted from the total counts (on the average <20%) and results were normalized for protein concentration.

[3] = system: human epithelial kidney (HEK) cells; experiment: Insulin-dependent glucose uptake in HEK cells; format: cell-based; settings: myristoylated peptide 2 h, then insulin 100 nM 10 min
Description: as §1, §2

293A cells = experiment: Insulin-mediated glucose uptake (2DG) in 293A cells; format: cell-based, human; settings: insulin 15 min, 2DG 15 min, vs controls infected with vector alone, p≦0.05
Description: FIG. 12A-D illustrates that “knock-down” BVR and Y^198 detection increased glucose uptake into 293A cells upon insulin induction. As shown in the graph of FIG. 12A, insulin treatment increases BVR activity. 293A cells were treated with insulin (50 nM) and subsequently used at indicated time points for BVR activity measurement. […] Purified BVR was phosphorylated by IRK for the indicated periods. Reactions were terminated by diluting with PBS and freezing at −20° C. BVR activity was determined as in FIG. 12A, and normalized to that of the control (43.8 μmol per min per mg). […] 293A cells were incubated with insulin and after 8 min or 30 min, subjected to immunoprecipitation using anti-human BVR antibodies. The phosphorylated BVR was visualized by immunoblotting using anti-tyrosine antibodies. ECL system was used for visualization of phosphorylated BVR. […]
Glucose uptake was assessed by measuring 2-deoxy 1-[^3H] glucose (2DG) absorption as described by (Braiman et al. (Mol. Endocrinol. 13:2002-12 (1999)), which is hereby incorporated by reference), with minor modifications. […] Radioactivity was measured and data was normalized to protein concentration. Non-specific uptake was determined in the presence of 200 mM of glucose and was subtracted from the total uptake. […]

human BVR = experiment: BVR autophosphorylation; format: biochemical; settings: pH 8.4, 30 mM MnCl2, 2 h at 30° C.
Description: In FIG. 9A, effect of tyrosine mutations of BVR on its autophosphorylation is shown. Human wtBVR and BVR with mutations in tyrosine were used in the experiment to determine autophosphorylation of BVR. The reactions were performed as described in the Examples. FIG. 9B is a graph showing that BVR tyrosine kinase activity was checked by incubating 5 μg purified BVR with 5 μg Raytide in 50 μl kinase buffer containing 10 μM labeled ATP for 2 h at 30° C. The aliquots of the reaction were transferred onto P81 Whatman filters and radioactivity due to phosphorylation was measured using a scintillation counter.
FIGS. 10A-B illustrate that autophosphorylation of BVR is an Mn^+2 dependant kinase reaction. […] The effects of different metal ions (30 mM MnCl2, 20 mM MgCl2, 20 mM CaCl2, 20 mM Zn acetate) and their combinations were analyzed as indicated in the text. […] Phosphorylation of wtBVR by IRK in the presence of tyrosine kinase inhibitor genestein (200 μM); DMSO was used as the vehicle for genestein and was included in the control reaction mixture. The reactions were carried out in HEPES buffer (pH 8.0) in the presence of 20 mM MgCl2 as described in the Examples.
To detect autophosphorylation of BVR, GST-hBVR of wild type (wt) and mutant variants were incubated in 50 mM HEPES buffer (pH 8.4) in the presence of 30 mM MnCl2 and 1 mM DTT for 2 h at 30° C. The reaction was started with the addition of 10 μM ATP labeled with 10 μCi [γ-^32P]-ATP and was stopped with the addition of Laemmli sample buffer. Samples were boiled for 3 min and applied to a 8% SDS-PAGE gels, transferred to a PVDF membrane, and then visualized by autoradiography. […] The reaction was started with the addition of ATP and terminated by adding 120 μl 10% H3PO4. 100 μl aliquots were directly transferred to P81 Whatman filters which were subsequently washed extensively in 0.75% phosphoric acid at room temperature. Finally, the filters were submerged in acetone for 5 min, dried, and retained counts were measured using a Beckman LS 6500 liquid scintillation counter (Beckman Coulter, Fullerton, Calif.).

[4] = target: T1, insulin receptor kinase (IRK) (Homo sapiens, UniProt P06213); experiment: BVR phosphorylation by the insulin receptor tyrosine kinase (IRK); format: biochemical; settings: tyrosine point mutant as IRK substrate, 2 h at 30° C.
T1 construct: GST-hBVR fusion protein and the 48 kDa cytoplasmic domain of the β-subunit of IRK; purchased Biomol International (Plymouth, Pa.)
Description: FIGS. 7A-B illustrate BVR as a substrate for insulin receptor kinase. […] 10 μg purified wtBVR was incubated in 100 μl kinase assay buffer (pH 8.0) containing 0.1 μg IRK, 10 μM ATP, and 20 μCi [^32P]-ATP at 25° C. up to 4 h. The reaction was terminated by the addition of Laemmli buffer at different points of time as indicated. Samples were separated using 8% SDS-PAGE gel and transferred onto PVDF filter, and phosphorylated protein bands were visualized by autoradiography. […] From left to right lane 1, wtBVR plus IRK in the presence of 50 mM EDTA (pH 8.0); lane 2, wtBVR plus IRK; lane 3, wtBVR in the absence of IRK. The reaction mixtures were subjected to SDS-PAGE electrophoresis and transferred onto a polyvinylidene fluoride (“PVDF”) filter. The blot was immuno-stained with anti-phosphotyrosine antibodies and ECL detection system was used to visualize phosphorylated tyrosines. […] In FIG. 8A the Y^198 residue of BVR is phosphorylated by IRK. Purified wtBVR and Y^198 mutant BVR were incubated with IRK at 30° C. for 2 h. Samples were subjected to SDS-PAGE electrophoresis and processed as described in FIG. 8B. FIG. 8B is a time course of Y^198 mutant BVR phosphorylation by IRK. A purified preparation of human BVR that carried Y^198 mutation was incubated with IRK for up to 3 h as described in FIG. 7A. Samples taken at the indicated time-points were analyzed for detection of phosphorylated proteins as above. […] Subsequently, samples were subjected to SDS-PAGE, stained with Coomassie blue and visualized bands were excised and used for measurement of radioactive content. The experiments were repeated three times. […] The indicated double mutants of BVR were used as substrates for IRK and analysis was carried out as in FIG. 8A. FIGS. 10A-B illustrate that autophosphorylation of BVR is an Mn^+2 dependant kinase reaction. […] The effects of different metal ions (30 mM MnCl2, 20 mM MgCl2, 20 mM CaCl2, 20 mM Zn acetate) and their combinations were analyzed as indicated in the text. […] The reactions were carried out in HEPES buffer (pH 8.0) in the presence of 20 mM MgCl2 as described in the Examples. Phosphorylation of BVR by IRK was examined using GST-hBVR fusion protein and the 48 kDa cytoplasmic domain of the β-subunit of IRK. BVR (5 μg) was incubated in 50 μl of IRK kinase buffer containing 50 mM HEPES (pH 8.0), 20 mM MgCl2, 1 mM DTT in the presence of 0.05 μg IRK and 10 μM ATP labeled with 10 μCi [γ-^32P]-ATP. The reaction was started with the addition of labeled ATP and incubated for 2-4 h. Reactions were terminated by addition of Laemmli sample buffer and boiled for 3 min. Samples were subjected to 8% SDS-PAGE and transferred to PVDF membranes for autoradiography.

T1 sequence (P06213 980-1382 limits assumed): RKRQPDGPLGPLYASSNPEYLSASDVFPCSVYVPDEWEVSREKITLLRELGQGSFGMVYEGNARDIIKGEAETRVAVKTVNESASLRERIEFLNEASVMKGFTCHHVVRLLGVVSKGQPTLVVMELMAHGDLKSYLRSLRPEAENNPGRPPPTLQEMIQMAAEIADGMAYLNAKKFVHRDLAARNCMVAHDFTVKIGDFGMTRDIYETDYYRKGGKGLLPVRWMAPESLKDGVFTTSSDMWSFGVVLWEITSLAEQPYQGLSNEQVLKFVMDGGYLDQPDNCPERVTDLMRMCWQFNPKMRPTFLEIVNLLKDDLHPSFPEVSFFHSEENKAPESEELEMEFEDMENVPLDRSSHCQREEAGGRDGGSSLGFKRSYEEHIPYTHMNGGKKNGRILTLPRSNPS

GST-hBVR G17 mutant (GVGRA to GVARA), ATP binding domain mutant
IRS phosphorylation by BVR (kinase assay) [1]: G^17 mutation, for the most part, prevented IRS phosphorylation by BVR

KRNRYLSF (Biliverdin reductase derived peptide) [hBVR peptide, amino acids 224-231 of BVR]
IGF-mediated cellular glucose uptake in PAC1 cells [2]: inhibit IGF-mediated cellular glucose uptake | insulin mediated cellular glucose uptake in HEK cells [3]: antagonizing insulin mediated cellular glucose uptake

siBVR: human BVR siRNA, target nt96-nt116, expressed from retroviral vector pSuper-Retro-siBVR (chain 1 UCCUCAGCGUUCCUGAACCUG; chain 2 AGGAGUCGCAAGGACUUGGAC)
insulin-mediated glucose uptake by cells (293A cells): significantly increased insulin-mediated glucose uptake

B1: Y^198: human BVR point mutant DQYMK to DQFMK (protein, UniProt P53004 3-296, looked up, variant Y198F)
Biliverdin reductase A: AEPERKFGVVVVGVGRAGSVRMRDLRNPHPSSAFLNLIGFVSRRELGSIDGVQQISLEDALSSQEVEVAYICSESSSHEDYIRQFLNAGKHVLVEYPMTLSLAAAQELWELAEQKGKVLHEEHVELLMEEFAFLKKEVVGKDLLKGSLLFTAGPLEEERFGFPAFSGISRLTWLVSLFGELSLVSATLEERKEDQFMKMTVCLETEKKSPLSWIEEKGPGLKRNRYLSFHFKSGSLENVPNVGVNKNIFLKDQNIFVQKLLGQFSEKELAAEKKRILHCLGLAEEIQKYCCSRK
autophosphorylation of BVR (mutants) (human BVR): did not result in significant changes in autophosphorylation of BVR | reduction of extent of BVR phosphorylation by IRK compared with wtBVR [4]: ~70% | insulin-mediated glucose uptake by cells (293A cells): increased significantly
